Here are results for three molecules from patent CN116406375A (UNIV SHANGHAI TECHNOLOGY, dated 2023).

The target in test [1] is T1, HCoV-NL63刺突 (HCoV-NL63, UniProt Q6Q1S2 19-1356).
T1 construct: whole, on cells
T1 sequence: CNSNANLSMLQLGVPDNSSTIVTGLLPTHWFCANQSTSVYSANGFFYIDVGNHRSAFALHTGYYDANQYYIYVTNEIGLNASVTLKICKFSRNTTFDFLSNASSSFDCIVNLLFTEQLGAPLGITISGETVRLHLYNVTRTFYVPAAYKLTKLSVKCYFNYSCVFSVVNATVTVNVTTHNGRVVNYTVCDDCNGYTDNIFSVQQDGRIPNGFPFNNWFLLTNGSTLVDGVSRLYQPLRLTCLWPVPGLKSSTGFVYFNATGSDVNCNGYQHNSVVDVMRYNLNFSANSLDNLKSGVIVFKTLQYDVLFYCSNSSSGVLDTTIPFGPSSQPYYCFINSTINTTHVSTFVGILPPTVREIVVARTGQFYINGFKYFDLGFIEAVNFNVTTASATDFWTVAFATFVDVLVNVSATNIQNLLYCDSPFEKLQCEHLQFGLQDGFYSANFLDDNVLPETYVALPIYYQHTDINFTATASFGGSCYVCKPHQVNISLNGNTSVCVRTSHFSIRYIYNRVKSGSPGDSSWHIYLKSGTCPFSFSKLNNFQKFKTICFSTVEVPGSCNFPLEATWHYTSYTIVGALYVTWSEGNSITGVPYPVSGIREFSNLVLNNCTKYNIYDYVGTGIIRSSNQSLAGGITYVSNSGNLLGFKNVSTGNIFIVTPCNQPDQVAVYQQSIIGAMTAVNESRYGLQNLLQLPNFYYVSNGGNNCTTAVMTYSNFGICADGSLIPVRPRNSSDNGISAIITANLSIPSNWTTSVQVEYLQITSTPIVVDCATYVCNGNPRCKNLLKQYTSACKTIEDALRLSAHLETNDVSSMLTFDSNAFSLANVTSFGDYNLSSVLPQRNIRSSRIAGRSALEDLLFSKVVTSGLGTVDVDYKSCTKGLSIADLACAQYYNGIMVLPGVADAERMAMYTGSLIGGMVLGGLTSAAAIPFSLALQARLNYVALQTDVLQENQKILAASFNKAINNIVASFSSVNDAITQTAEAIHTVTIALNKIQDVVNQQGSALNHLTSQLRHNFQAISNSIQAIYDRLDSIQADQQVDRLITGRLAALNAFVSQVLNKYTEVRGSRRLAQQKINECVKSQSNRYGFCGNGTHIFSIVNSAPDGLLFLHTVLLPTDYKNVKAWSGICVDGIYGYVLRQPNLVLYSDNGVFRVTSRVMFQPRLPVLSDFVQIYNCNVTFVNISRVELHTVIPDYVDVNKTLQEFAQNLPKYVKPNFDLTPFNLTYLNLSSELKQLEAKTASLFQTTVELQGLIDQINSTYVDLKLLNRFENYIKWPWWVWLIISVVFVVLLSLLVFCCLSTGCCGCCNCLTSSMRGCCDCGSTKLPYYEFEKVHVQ
In words: FACS on transfected HEK293T cells.

Test [2] has as its target T2, HCoV-HKU1刺突 (HCoV-HKU1, UniProt Q5MQD0 13-1356).
T2 construct: whole, on cells
T2 sequence: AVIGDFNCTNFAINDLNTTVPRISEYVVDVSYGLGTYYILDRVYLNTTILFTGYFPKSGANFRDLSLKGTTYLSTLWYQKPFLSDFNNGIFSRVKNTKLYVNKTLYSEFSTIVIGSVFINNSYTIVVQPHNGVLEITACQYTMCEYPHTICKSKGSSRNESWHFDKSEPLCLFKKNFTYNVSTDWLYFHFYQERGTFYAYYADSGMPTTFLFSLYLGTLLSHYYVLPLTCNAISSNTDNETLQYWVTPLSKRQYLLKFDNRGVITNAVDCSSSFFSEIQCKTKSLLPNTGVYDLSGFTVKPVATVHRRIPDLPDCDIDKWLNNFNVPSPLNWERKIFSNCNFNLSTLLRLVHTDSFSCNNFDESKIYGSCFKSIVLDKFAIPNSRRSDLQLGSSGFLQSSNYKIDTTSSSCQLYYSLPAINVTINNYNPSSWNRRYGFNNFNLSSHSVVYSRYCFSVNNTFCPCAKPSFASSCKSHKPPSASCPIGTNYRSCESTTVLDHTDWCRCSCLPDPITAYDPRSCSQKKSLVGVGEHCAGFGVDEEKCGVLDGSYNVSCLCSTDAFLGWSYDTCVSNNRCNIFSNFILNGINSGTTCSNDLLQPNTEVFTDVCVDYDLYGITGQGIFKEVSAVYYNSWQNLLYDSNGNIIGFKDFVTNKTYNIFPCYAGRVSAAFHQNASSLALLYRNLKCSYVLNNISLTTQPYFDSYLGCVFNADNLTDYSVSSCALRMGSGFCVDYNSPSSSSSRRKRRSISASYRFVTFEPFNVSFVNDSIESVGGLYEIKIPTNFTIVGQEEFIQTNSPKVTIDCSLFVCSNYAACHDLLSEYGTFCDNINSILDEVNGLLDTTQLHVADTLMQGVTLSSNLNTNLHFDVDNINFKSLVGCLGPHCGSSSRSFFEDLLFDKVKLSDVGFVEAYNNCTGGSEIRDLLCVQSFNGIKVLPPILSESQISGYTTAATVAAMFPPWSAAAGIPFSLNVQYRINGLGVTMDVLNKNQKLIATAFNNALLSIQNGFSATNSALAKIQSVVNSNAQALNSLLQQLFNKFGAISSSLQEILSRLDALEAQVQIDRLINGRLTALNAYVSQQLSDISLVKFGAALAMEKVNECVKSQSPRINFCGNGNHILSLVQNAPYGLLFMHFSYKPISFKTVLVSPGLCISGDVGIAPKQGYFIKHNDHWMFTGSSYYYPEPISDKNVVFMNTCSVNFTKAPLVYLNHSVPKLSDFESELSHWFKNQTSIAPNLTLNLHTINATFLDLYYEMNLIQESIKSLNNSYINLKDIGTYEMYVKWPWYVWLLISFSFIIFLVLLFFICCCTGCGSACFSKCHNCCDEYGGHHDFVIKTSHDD
In words: FACS on transfected HEK293T cells.

Test [3] has as its target T3, HCoV-229E刺突 (HCoV-229E, UniProt P15423 16-1173).
T3 construct: whole, on cells
T3 sequence: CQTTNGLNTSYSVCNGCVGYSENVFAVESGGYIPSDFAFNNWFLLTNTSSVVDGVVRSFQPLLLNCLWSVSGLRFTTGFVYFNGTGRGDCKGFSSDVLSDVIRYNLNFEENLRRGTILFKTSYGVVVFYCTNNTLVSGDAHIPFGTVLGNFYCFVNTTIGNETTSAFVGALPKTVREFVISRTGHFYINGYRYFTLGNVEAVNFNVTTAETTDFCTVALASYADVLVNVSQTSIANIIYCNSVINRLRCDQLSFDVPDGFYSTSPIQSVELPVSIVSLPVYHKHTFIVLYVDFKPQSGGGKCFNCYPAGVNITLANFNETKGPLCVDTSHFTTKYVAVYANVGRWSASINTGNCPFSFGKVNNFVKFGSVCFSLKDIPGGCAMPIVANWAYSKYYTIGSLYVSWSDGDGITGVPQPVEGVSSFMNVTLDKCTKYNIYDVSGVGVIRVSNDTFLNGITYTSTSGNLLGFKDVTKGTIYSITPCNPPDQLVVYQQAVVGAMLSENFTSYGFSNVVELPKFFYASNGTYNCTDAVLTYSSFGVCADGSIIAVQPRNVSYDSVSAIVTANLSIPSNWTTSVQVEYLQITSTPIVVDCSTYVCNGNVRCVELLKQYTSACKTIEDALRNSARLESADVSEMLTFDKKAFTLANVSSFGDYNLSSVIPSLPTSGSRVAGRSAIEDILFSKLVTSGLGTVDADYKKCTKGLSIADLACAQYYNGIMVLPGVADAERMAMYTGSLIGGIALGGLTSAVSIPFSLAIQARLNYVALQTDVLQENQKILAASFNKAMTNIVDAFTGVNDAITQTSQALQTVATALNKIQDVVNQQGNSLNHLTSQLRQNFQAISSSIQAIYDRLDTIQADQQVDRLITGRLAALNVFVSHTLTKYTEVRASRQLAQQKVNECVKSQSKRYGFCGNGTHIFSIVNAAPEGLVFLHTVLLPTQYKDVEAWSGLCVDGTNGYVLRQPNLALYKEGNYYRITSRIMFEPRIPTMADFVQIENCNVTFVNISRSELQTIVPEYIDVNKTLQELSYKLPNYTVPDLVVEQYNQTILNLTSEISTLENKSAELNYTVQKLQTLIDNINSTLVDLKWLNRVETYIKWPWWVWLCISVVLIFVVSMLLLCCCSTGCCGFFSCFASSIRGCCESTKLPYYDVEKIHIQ
In words: FACS on transfected HEK293T cells.

For test [4], the target named is T4, HCoV-OC43刺突 (HCoV-OC43, UniProt P36334 14-1353).
T4 construct: whole, on cells
T4 sequence: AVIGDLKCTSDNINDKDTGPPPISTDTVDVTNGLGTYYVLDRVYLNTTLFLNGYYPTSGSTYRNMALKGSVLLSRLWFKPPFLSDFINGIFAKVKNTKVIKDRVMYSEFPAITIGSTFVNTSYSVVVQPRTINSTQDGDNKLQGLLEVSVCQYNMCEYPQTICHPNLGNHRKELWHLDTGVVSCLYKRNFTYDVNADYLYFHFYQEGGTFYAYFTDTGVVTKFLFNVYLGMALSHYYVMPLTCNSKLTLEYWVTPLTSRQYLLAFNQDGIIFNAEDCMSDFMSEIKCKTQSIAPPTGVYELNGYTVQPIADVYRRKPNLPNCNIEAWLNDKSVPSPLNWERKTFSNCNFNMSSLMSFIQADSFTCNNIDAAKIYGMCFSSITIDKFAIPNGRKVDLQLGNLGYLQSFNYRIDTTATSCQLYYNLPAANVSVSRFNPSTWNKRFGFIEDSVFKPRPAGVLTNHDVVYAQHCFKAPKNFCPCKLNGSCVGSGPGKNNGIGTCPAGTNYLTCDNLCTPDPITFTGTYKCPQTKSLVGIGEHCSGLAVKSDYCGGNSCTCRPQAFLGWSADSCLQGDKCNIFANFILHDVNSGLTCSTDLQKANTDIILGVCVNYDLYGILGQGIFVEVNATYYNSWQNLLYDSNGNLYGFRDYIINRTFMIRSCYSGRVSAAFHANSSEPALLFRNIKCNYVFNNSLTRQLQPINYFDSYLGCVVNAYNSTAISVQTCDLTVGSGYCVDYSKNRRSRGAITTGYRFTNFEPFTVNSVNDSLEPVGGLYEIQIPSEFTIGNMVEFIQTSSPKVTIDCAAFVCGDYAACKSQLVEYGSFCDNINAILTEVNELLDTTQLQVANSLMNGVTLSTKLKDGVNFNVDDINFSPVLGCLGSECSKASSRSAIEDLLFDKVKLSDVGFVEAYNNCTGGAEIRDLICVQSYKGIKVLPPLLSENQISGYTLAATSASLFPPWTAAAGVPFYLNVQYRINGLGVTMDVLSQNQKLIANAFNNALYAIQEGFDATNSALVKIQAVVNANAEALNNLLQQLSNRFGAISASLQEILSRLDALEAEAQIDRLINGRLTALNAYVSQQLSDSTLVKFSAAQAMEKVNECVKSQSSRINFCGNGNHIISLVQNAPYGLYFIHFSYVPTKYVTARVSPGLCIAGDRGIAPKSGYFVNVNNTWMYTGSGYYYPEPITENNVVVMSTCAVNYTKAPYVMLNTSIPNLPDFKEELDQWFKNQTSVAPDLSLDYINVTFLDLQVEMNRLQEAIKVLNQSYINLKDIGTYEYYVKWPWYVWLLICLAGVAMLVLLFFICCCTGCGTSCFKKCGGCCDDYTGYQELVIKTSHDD
In words: FACS on transfected HEK293T cells.

Test [5] concerns the target 真SARS-CoV-2病毒 Victoria/01/2020 的刺突 (SARS-CoV-2). In words: cell-based or functional assay.

B1: S-D4 (antibody, V domains shown)
VH: QVQLQESGGGVVQPGRSLRLSCEVSGFTFSDYGMHWVRQAPGKGLEWVAVIWSEGSTEYYADSVKGRFTISRDNSKDTLYLQMNSLRAEDTAVYYCARPGYPTSTDRSPAAAGARQYYYYGMDVWGQGTTVTVSS
VL: NFMLTQPHSVSESPGKTVTISCTRSGGSGAANYVQWYQQRPGSSPTTLIYEDSRRPPGVPDRFSGSVDTSSNSASLTISGLQTEDEADYYCQSYDSSNHVVFGGGTKLTVLG
notes: also called S-D4二聚体; S-D4 IgG4
With B1, the binding result in test [1], in test [2], in test [3] and in test [4] was “no binding” throughout. Further, the “NT50, 真病毒中和 (Victoria/01/2020)” value in test [5] was found to be 2.04 nM.

B2: S-E6 (antibody, V domains shown)
VH: QVTLRESGPGLVKPSETLSLTCAVSGGSLSSVNYYWSWIRQHPGKGLEWIGYIYYSGSTNYNPSLKSRVTMSLDTSKNQFSLKLSSVTAADTAVYYCATPGAIMGALHIWGQGTLVTVSS
VL: QAVLTQPSSASSTPGQRVIISCSGSSSNIGSNTVSWYQQVPGAAPKLLIYFDYRRPSGVPDRFSGTRSGTSASLGISGLQSEDEADYYCAAWDDSLSAWVFGRGTKLTVLG
notes: also called S-E6二聚体; 二聚体S-E6
As to B2, the binding result in test [1], in test [2], in test [3] and in test [4] was “no binding” each time. The “NT50, 真病毒中和 (Victoria/01/2020)” value in test [5] is 0.15 nM.

B3: S-B8 (antibody, V domains shown)
VH: QVQLVQSGGGLIQPGGSLRLSCAASGFTVSLSHMNWVRQAPGKGLEWVSITYGDGNSDYADSVKGRFTISRDNSKNTLYLQMNSLRAEDTAVYYCAREYYYGMDVWGQGTTVTVSS
VL: not shown
notes: also called S-B8二聚体
In the case of B3, the binding result in test [1], in test [2], in test [3] and in test [4] was “no binding” throughout. Further, the “NT50, 真病毒中和 (Victoria/01/2020)” value in test [5] is 0.88 nM.
